According to the nanobody polyreactivity screen of Harvey et al. (2022):

Assay: yeast display, Sf9 membrane polyspecificity reagent, FACS + sequencing; frameworks hold sequencing errors
Method in brief: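 A nanobody's polyreactivity label depends on the gate it was sorted from. Yeast display cells were stained with 10% biotinylated, detergent-solubilized Sf9 membrane reagent for 1 hour at 4 °C, enriched on streptavidin microbeads and sorted by FACS. The low and high (top ~1%) gates were set on anti-HA fluorescence for expression and streptavidin fluorescence for reagent binding.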

Sequence | polyreactivity (PSR sort gate)
QVQLVESGGGLVQAGGSLRLSCAASGSIYAYYAMGWYRQAPGKERELVATISGGGVGTYYADSVKGRFTISRDNAKNSVYLQMNSLKPEDTAVYYCAADGAQAVIYGDRIEMDYWGQGTQVTVSS | low polyreactivity
QVQLVESGGGLVQAGGSLRLSCAASGFTFRNYAMGWYRQAPGKEREFVAAISFSGGRTYYADSVKGRFTISRDNAKITVYLQMNSLKPEDTAVYFCAKKSYSKYEYWGQGTQVTVSS | low polyreactivity
QVQLVESGGGLFQAGGSLRLSCAASGYIFGSYVMGWYIQAPGKERELVAAISRRGGSTYYADSVKGRFTISRDNAKNTVYLQMNSLNPEDTAVYYCAADDGQYAKYDYWGQGTQVTVSS | high polyreactivity
QVQLVESGGGLVQAGGSLRLSCAASGFTFSTNAMGWYRPAPGKERELVAAISYGGVSTYYADSVKGRFTISRDNAKNTVYLQMNSLKPEDTAVYYCAAGRITTRLYGDPFDYWGQGTQVTVSS | low polyreactivity
QVQLVESVGGLVQAGGSLRLSCAASGYTFYLYAMGWYRQAPGKERELVAAISYSSGGTYYADSVKGRFTISRDNAKNTVYLQMNSLKPEDTAVYYCAADAYDGEGTYPFEYWGQGTQVTVSS | low polyreactivity
QVQLVESGGGLVQAGGSLRLSSAASGLTFKGYAIGWYRQEPGKESELVAANNGSGGSTYYADSVKRRFTISRDNAKNTVYLQMNSLKPEDTAVYYCNAARGHPYPLSDNVDDYDYWGQGTQVTVSS | low polyreactivity
QVQLVESGGGLVQAGGSLRLSCAASGLIFYGNAMGWYRQAPGKERELVAAISWSGGNTSYADSVKGRFTISRDNAKNTVYLQMNSLKPEDTAVYYCAVDNTGRSWPYDYWGQGTQVTVSS | low polyreactivity
QVQLVESGGGLVQAGGSLRLSCAASGRIFWTYAMGWYSQAPGKERELVASITWSGGSTYYADSVKGRFTISRDNAKNTFYLQMNSLKPEDTAVYYCKTDVLAPYDSGYWGQGTQVTVSS | low polyreactivity
QVQLVESGGGIVQAGGSLRLSCAASGFIFRYYAMGWYRQAPGKERELVAAISWSGGSTYYADSVKGRFTISRDNAKNTVYLQMNSLKPEETAVYYCAAEPTGWVWYAGYGYYWGQGTQVTVSS | high polyreactivity
QVQLVESGGGLVQAGGSLRLSCAASGLTIGYYAMGWYRQAPGKERELVATITWRGVRTYYADSVKGRFTISRDNAKNTVYLQMNSLKPEDTAVYYCDKGYWSKGERWFGGFGYWGQGTQVTVSS | low polyreactivity
QVKLVESGGGLVQAGGSLRLSCAASGRTLGGYAMRWYRQAPGKERQLVAAITRRGGSRYYADTVKGRFTISRDNAKNTVYLQMNSLKPEDSAVYYCAARWYARSLTRFNYWGKGTQVTVSS | high polyreactivity
QVQLVESGGGLVQAGGSLRLSCAASVFTFDENAMGWYRQAPGINYSGASTYYADSVKGRFTISRDNAKNTVYLQMNSLKPDDTAVYYCAAEVVAQMNYWGQGTQVTVSS | low polyreactivity
QVQLVESGGGLVQAGGSLRLSCAASGFTFVIHDMGWYRQAPGKERELVADITSGGDTYYADSVKGRFTISRDNAKNTVYLQMNSQKPEDTAVYYCAADIYPDWIYLLYGYWGQGTQGTVSS | low polyreactivity
QGQLVESGGGLVQAGGSLRLTCAASGFSFFDYAMGWYRQAPWKERELVAAISWDGDNTYYADSVKGRFTISRDNAKYTVYLQMNSLKPDDSAVYYCNADYENYEQFFDYWGQGTQVTVSS | high polyreactivity
QVQLVESGGGLVQAGGSLRLSCAASGSIFPRNAMGWYRQAPGKERELVAAIRKSGGSTYYADSVKGRFTISRDNAKNTVYLQMNSLKPEDTAVYYCAKPYSVCCWQSPIYNYWGQGTQVTVSS | low polyreactivity
QVQLVESGGGLVQAGGSLRLSCAASGRIFDYYAMGWYRQAPGKERELVAAISSSVGNTYYADSVKGRFTISRDNAKNSVYLQINSLKQEDTAVYYCADYSYVRSSYEVEYDYWGQGTQVTVSS | low polyreactivity
QVQLVESGGGLVQAGGSLRLSCAASGRTFLYYAMGWFRQAPGKERELVAAISASGGSTYYADSVKGRFTISRDNAKNTVYLQMNSLKPEETAVYSCARYTGWGSRYDYWGQGTQVTVSS | high polyreactivity
QVQLEESRGGLVQAGGSLRLSCAASGLNFRSNAMGWYRQAPGKERELVAAISSSGGSTYYADSVKGRFTISRENAKNTVYLQMNSLKPEDTAVYYCAAEDPADQYDYWGQGTQVTVSS | high polyreactivity
QVQLVESGGGLVQAGGSLRLSCAASGIIFLDYVMGWYRQAPGKERELVAAISRSGGTTYYADSVKGRFTISRDNAKNTVYLQMNSLKPEDTAVYYCAVRSYRDTRFYYWGQGTQVTVSS | high polyreactivity
QVQLVESGGGLVQAGGSLRLSCAASGSIFYWYALGWYRQAPGKERELVAAITYSGDRTYYADSVKGRFTISRDNAKNTVYLQMNSLKPEVTAVYYCAKDRGSGPLDYWGQGTQVTVSS | low polyreactivity
QVQLVESGGGLVQAGGSLRLSCAASGSTQYPYAMGWYRQAPGKERELDAAISWSGGSTYYADSVKGRFTISRDPAQNTVYLQMNSLNPEDTAVYYCAAVYHFQYGAYDYWGQGTQVTVSS | high polyreactivity
QVQLVESGGGLVQAGGSLRLSCAASGSIFAQYAMGWYRQAPGKERELVATISSVGSTNYADSVKGRFTISRDNAKNTVYLQMNSLKPEDTAVYYCAARYPVGRSPRAYEYWGQGTQVTVSS | low polyreactivity

Sequence | polyreactivity (PSR sort gate)
QVKLEESGGGLVQAGGSLRLSCAASGFIFGSYAMGWYRQAPGKERELVAVISSSGGRTYYADSVKGRFTISRDNAKNTVYLQMNSLKPEDTAVYYCAAPWIARKYSPSEYDWGQGTQVTVSS | high polyreactivity
QVQLVESGGCLVQAGGSLRLSCAASGRIFHQNTMGWYRQAPGKERELVAAISATGGGTNYADSVKGRFTISRDNAKNTVYLQMNSLKPEDTAVYYCAVRPKTSWYSWYYWGQGTQVTVSS | low polyreactivity
QVQLVESGGGLVQAGGSLRLTCAASGSTFGWYAMGWYRQAPGKGRGVVAAITGDSASTYYADSVKGRFTISRDNAKNTVYLQTNSLKPEDTAVYYCAATKFSAFGSPPLIGYGYWGQGTQVTVSS | low polyreactivity
QVQLVESGGGLVQAGGSLRLSCAASGFIFHNYAMGWYRQAPGKESELVAVITLRGGSTYYADSVKGRCTISRDNAKNTVYLQMNSLKPEDTAVYYCATGNSKGRRTVRYGYWGQGTQVTVSS | high polyreactivity
QVQLVESGGGLVQAGGSLRLSCAASGRIYWYYAMAWSRQAPGKERELVAAINSGGNTNYADSVKGRFTISRDNAKNTVYLKMNSLKPEDTAVYYCAKGRWPLLLSKDLYYWGQGTQVTVSS | high polyreactivity
QVQLVESGGGLVQAGGSLRLSCAASGSTFSAYGMGWYRQAPGKERELVARISWNGGSTYYADSVKGRFTISRDNAKNTVYLQMNSLKPEDTAVYYCNTELVGHPDWLSWRYYYWGQGTQVTVSS | low polyreactivity
QVQLVESVGGLVQAGGSLRLSCAASGLIFAYYAMGWYRQAPGKERELVAAISWTGGSTYYADSVKGRFTISRDNAKNTVYLQMNSLKPEDTAVYYCNTVGKPGFYSWGQGTQVTVSS | high polyreactivity
QVQLVESGGGLVKAGGSLRLSCAASGFIFYIYAMGWYRQAPGKERELVAAITSGGSTYYADSVKGRFTISRDNAKNTVYLQMNSLKPEDTAVYYCAAESYYGYDYWGQGTQVTVSS | low polyreactivity
QVQLEESGGGLVQAGGSLRLSCAASGIIFTTYDMGWYRQATGKERELVAAISSSTTNTYYADSVKGRFTISRDNAKNTVYLQMNSLKPEDTAVYYCAAPYKRNAGFDYWGQGTQVTVSS | low polyreactivity
QVQVVESGGGLVQAGGSLRLSCAASGRIFPLYAMGWSRQAPGTERELVAAISSGGTTYYADSVKGRFTFSRDNAKNTVYLQMNSLKPEDTAVYYCARRPAQRWGRFDYWGQGTQVTVSS | low polyreactivity
QVQLVESGGGLVQAGGSLRLSCAASGSTFSRYAMGWYRQAPGKERELVAAISSGDRTNYADSVKGRFTISRDNAKNTVYLQMNSLKPEDTAVYYCADDLFPIAGEYDYWGQGTQVTVSS | high polyreactivity
QVQLVESGGGLVQAVASIRLSCAASGITIYLYAKGWSRQAPGKARELVATITSRSGSTYYADSVKGRFTISRDNAKNTVYLQMNSLKPEDTAVYYCAAKYPRYLYGYWGQGTQVTVSS | high polyreactivity
QVQLVESGGGLVQAGGSLRLSCAASGRFLWYNAMGWYRQAPGTERELVAAITRGGSTHYADSVKGRFTLSRDNAKNTVYLQMNSLKPEDTAVYYCAVSYRSFPYYWERYYSWGQGTQVTVSS | high polyreactivity
QVQLVESGGGLVQAGCTLRLSCAASGSIAYNAMGWYRQAPGKERELVASIRASGGRTYYADSVKGRFTISRDNAKNSVYLQMNSLKPEDTAVYYCAAYHGSKPLHHKGYDYWGQGTQVSVSS | low polyreactivity
QVQLVESGGGLVQAGGSLRLSCAASGSIFTRYAMGWYRQAPGKEREFVAAISRRGGRTYYADSVKGRFTISRDNAKNTVYLQMNSLKPEDTAVYYCAASEPPGYYIALFDYWGQGTQVTVSS | high polyreactivity
QVQLVESGGGLVQAGGSLRLICAASGIIFVRYVMGWYRQAPGKEMELVAAINWSGGSTYYADSVKGRFTISRDNAKYTVYLQMNSLKPEDTAVYFCCAGSARDDDYWGQGTQVTVSS | high polyreactivity
QVQLVESGGGLVQAGGSLRLSCAASGRIFYLNAMGWYRQAPGKERELVAAITRSAASTHYADSVKGRFTISRDNAKNTVYLQMNSLKPEDTAVYYCAARFWYDYRHYDYWGQGTQVTVSS | low polyreactivity
QVQLEESGGGLVQAGGRLRLSCAASGSIFTGYTMGWYRQAPGKERELVASISRRGGRTYYADSVKGRFTISRDNAKNTVYLQMNSLKPEDTAVYYCAVDRVPWRYQDSYNYWGQGTQVTVSS | high polyreactivity
QVQLVESGGGLVQAGGSLRLSCAASGFTFRYYAMGWFRQAPGKESELVAAITWSGGGTYYADSVKGRFTISRYNAKNTVYLQMNSLKPEDTAVYYCNVYKSHRHQAEYNYWGQGTKVTVSS | high polyreactivity
QVQLVESGGGLVKAGGSLRLSCAASGSTFDSYAMGWYRQPPGKERELVASITSNDGSTSYADSVKGRFTISRDNAKNTVYLQMNSLKPEDTAVYYCAASSLYSDYGHRNLADGPYDYWGQGTQVTVSS | low polyreactivity
QVQHVESGGGLVQAGGTLRLSCAASGSTFLINTMGWYRQAPGKERELVAAISRSGGRTYYADSVKGRFTISRDNAKNTVYLQMNSLKPEDTAVYYCAAAYVYSNSYAFGSELYSWGQGTQVTVSS | high polyreactivity
